Test results published in patent publication US20020147170A1 (priority 2000, published 2002).
Changes are numbered by the printed parent chain.

B1: wild-type rat mu opioid receptor: wild-type rat mu opioid receptor expressed from an expression vector, comparator (protein, UniProt P33535 1-398, looked up)
Mu-type opioid receptor: MDSSTGPGNTSDCSDPLAQASCSPAPGSWLNLSHVDGNQSDPCGLNRTGLGGNDSLCPQTGSPSMVTAITIMALYSIVCVVGLFGNFLVMYVIVRYTKMKTATNIYIFNLALADALATSTLPFQSVNYLMGTWPFGTILCKIVISIDYYNMFTSIFTLCTMSVDRYIAVCHPVKALDFRTPRNAKIVNVCNWILSSAIGLPVMFMATTKYRQGSIDCTLTFSHPTWYWENLLKICVFIFAFIMPVLIITVCYGLMILRLKSVRMLSGSKEKDRNLRRITRMVLVVVAVFIVCWTPIHIYVIIKALITIPETTFQTVSWHFCIALGYTNSCLNPVLYAFLDENFKRCFREFCIPTSSTIEQQNSTRVRQNTREHPSTANTVDRTNHQLENLEAETAPLP
B2: Asp142Ala mutant: α1 adrenergic receptor DRY motif mutant (protein, UniProt P18841 1-515, looked up, variant D142A)
Alpha-1B adrenergic receptor: MNPDLDTGHNTSAPAQWGELKDANFTGPNQTSSNSTLPQLDVTRAISVGLVLGAFILFAIVGNILVILSVACNRHLRTPTNYFIVNLAIADLLLSFTVLPFSATLEVLGYWVLGRIFCDIWAAVDVLCCTASILSLCAISIARYIGVRYSLQYPTLVTRRKAILALLSVWVLSTVISIGPLLGWKEPAPNDDKECGVTEEPFYALFSSLGSFYIPLAVILVMYCRVYIVAKRTTKNLEAGVMKEMSNSKELTLRIHSKNFHEDTLSSTKAKGHNPRSSIAVKLFKFSREKKAAKTLGIVVGMFILCWLPFFIALPLGSLFSTLKPPDAVFKVVFWLGYFNSCLNPIIYPCSSKEFKRAFMRILGCQCRSGRRRRRRRRLGACAYTYRPWTRGGSLERSQSRKDSLDDSGSCMSGSQRTLPSASPSPGYLGRGAQPPLELCAYPEWKSGALLSLPEPPGRRGRLDSGPLFTFKLLGEPESPGTEGDASNGGCDATTDLANGQPGFKSNMPLAPGHF
B3: Cys128Phe mutant: α1 adrenergic receptor mutant in transmembrane domain III (protein, UniProt P18841 1-515, looked up, variant C128F)
Alpha-1B adrenergic receptor: B2 Alpha-1B adrenergic receptor with C128F, A142D
B4: Ala204Val mutant: α1 adrenergic receptor mutant in transmembrane domain V (protein, UniProt P18841 1-515, looked up, variant A204V)
Alpha-1B adrenergic receptor: B2 Alpha-1B adrenergic receptor with A142D, A204V
B5: Asn63Ala mutant: α1 adrenergic receptor mutant at conserved Asn63 (protein, UniProt P18841 1-515, looked up, variant N63A)
Alpha-1B adrenergic receptor: B2 Alpha-1B adrenergic receptor with N63A, A142D
B6: Arg143Lys mutant: α1 adrenergic receptor DRY motif mutant (protein, UniProt P18841 1-515, looked up, variant R143K)
Alpha-1B adrenergic receptor: B2 Alpha-1B adrenergic receptor with A142D, R143K
B7: Ala293Glu mutant: α1 adrenergic receptor mutant at carboxyl end of IC3 (protein, UniProt P18841 1-515, looked up, variant A293E)
Alpha-1B adrenergic receptor: B2 Alpha-1B adrenergic receptor with A142D, A293E
B8: His223Arg: polymorphic constitutively active PTH receptor mutant from Jansen's metaphyseal chondrodysplasia patients (protein, UniProt Q03431 27-593, looked up, variant H223R)
Parathyroid …: DADDVMTKEEQIFLLHRAQAQCEKRLKEVLQRPASIMESDKGWTSASTSGKPRKDKASGKLYPESEEDKEAPTGSRYRGRPCLPEWDHILCWPLGAPGEVVAVPCPDYIYDFNHKGHAYRRCDRNGSWELVPGHNRTWANYSECVKFLTNETREREVFDRLGMIYTVGYSVSLASLTVAVLILAYFRRLHCTRNYIRMHLFLSFMLRAVSIFVKDAVLYSGATLDEAERLTEEELRAIAQAPPPPATAAAGYAGCRVAVTFFLYFLATNYYWILVEGLYLHSLIFMAFFSEKKYLWGFTVFGWGLPAVFVAVWVSVRATLANTGCWDLSSGNKKWIIQVPILASIVLNFILFINIVRVLATKLRETNAGRCDTRQQYRKLLKSTLVLMPLFGVHYIVFMATPYTEVSGTLWQVQMHYEMLFNSFQGFFVAIIYCFCNGEVQAEIKKSWSRWTLALDFKRKARSGSSSYSYGPMVSHTSVTNVGPRVGLGLPLSPRLLPTATTNGHPQLPGHAKPGTPALETLETTPPAMAAPKDDGFLNGSCSGLDEEASGPERPPALLQEEWETVM
B9: Thr410Pro: polymorphic constitutively active PTH receptor missense mutant (protein, UniProt Q03431 27-593, looked up, variant T410P)
Parathyroid …: B8 Parathyroid … with R197H, T384P

What was measured:
[1] = molecular target: wild-type rat mu opioid receptor (rat); experiment: cell-based or functional assay
[2] = molecular target: Asn150Ala mutant rat mu opioid receptor (rat) (UniProt P33535); experiment: cell-based or functional assay
rat mu opioid receptor = experiment: SRE-Luc/Gq5i luciferase reporter assay in HEK293 cells; type: cell-based; settings: SRE + Gq5i, HEK293 cells
Source text: A positive assay for Gαi coupling (i.e., one that yields an increase in luciferase activity upon receptor activation, instead of a negative assay, one that yields a decrease in luciferase activity upon receptor activation), provides a detectable output signal and less interassay variation. It was hypothesized that Gαi coupling could be detected by altering the signaling pathway generated by Gαi coupled receptors. A chimeric G protein (Gqi5, Broach and Thorner, Nature 384 (Suppl.): 14-16 (1996)) that contains the entire Gαq protein having five C-terminal amino acids from Gαi attached to the C-terminus of Gαq has been generated. This chimeric G protein is recognized as Gαi by Gαi coupled receptors, but switches the receptor induced signaling from Gαi to Gαq. This allows Gαi receptor coupling to be detected using a positive assay by use of the Gαq responsive SMS-Luc or SRE-Luc construct (Stratagene, La Jolla, Calif.). SMS and SRE preferably respond to Gαq mediated inositol and calcium production. Moreover, detection can be carried out in the absence of forskolin pre-stimulation of cells.
Reagents & Solutions: The cell culture media used in the assays described below was Gibco BRL #12100-046. This media was made according to manufacturer's recipe, pH adjusted to 7.2, filtered (0.22 micron pore), and supplemented with 1% Pen/Strep (Gibco #15140-122; 100% penicillin G 10,000 units/ml, and streptomycin 10,000 μg/ml) and 10% fetal bovine serum. Cell culture media lacking 10% fetal bovine serum was also generated. DNA used in the transfection experiments was purified and quantitated by measuring the absorbance at OD260. A LucLite Luciferase Assay Kit (Packard) was used to quantitate luciferase activity. Transfections were carried out using LipofectAMINE Reagent (Gibco #18324-012).
The rat mu opioid receptor is a Gαi coupled receptor. Therefore we chose to use the Gq5i reporter system, described in detail above (Broach and Thorner, supra), which switches the signaling pathway from Gαi to Gαq for reliable positive readout. HEK293 cells were transfected with the reporter construct SRE-Luc, an expression vector containing nucleic acid encoding Gq5i (Broach and Thorner, supra), and an expression vector containing nucleic acid encoding either the wild-type or the Asn150Ala mutant rat mu opioid receptor. Basal and ligand-stimulated luciferase activity was measured. The ligand used in this assay was [D—Ala^2—MePhe^4, Gly-ol^5]enkephalin] (DAMGO). As a negative control, HEK293 cells were transfected with pcDNA1 (empty vector DNA), SRE-Luc, and the expression vector containing nucleic acid encoding Gq5i (Broach and Thorner, supra).
The luciferase assay was carried out as follows. On day 1, HEK293 cells in a T75 flask were washed with 15 ml serum-free media (or PBS), trypsinized with 5 ml 0.05% trypsin-EDTA (Gibco #25300-062), incubated at 37° C. for 3 minutes at which time 6-7 ml complete HEK293 media (Gibco #12100-046) and 10% Fetal Bovine Serum (Intergen #1050-90) were added. Thereafter, cells were collected in 50 ml centrifuge tubes, pelleted at 800-900 rpm (RCF˜275), and resuspend in 20 ml complete media. The cells were counted using a haemocytometer and diluted to 85,000 cells/ml in complete media. Using a repeat pipettor or cell plater, 100 μl of cells were added to each well of a Primaria 96-well plate (Falcon #353872). Cells were then incubated at 37° C., 5% CO2 until use at 48 hours.
On day 3, cells were transfected using LipofectAMINE™ according to the manufacturer's protocol (Gibco #18324-012, Rockville, Md.).
On day 4, cells were stimulated as follows. Ligands for the receptor, either DAMGO or a non-peptide ligand (e.g., naloxone or naltrexone), were diluted to a desired concentration in serum-free media containing 0.15 mM PMSF (or other protease inhibitor(s)). […]

α1 adrenergic receptor = settings: cited from earlier work
PTH receptor = settings: COS-7 cells; cited from earlier work

Row | Molecule | constitutive activity (α1 adrenergic receptor) | also measured
1 | [D-Ala^2-MePhe^4, Gly-ol^5]enkephalin (peptide) |  | Average Ligand Stimulated Activity (Light Emission) (light emission) [1]: 87500; Average Ligand Stimulated Activity (Light Emission) (light emission) [2]: 87000
2 | B1 |  | Average Ligand Stimulated Activity (Light Emission) (rat mu opioid receptor; ligand DAMGO): 87,461; Average Basal Activity (Light Emission) (rat mu opioid receptor; no ligand): 8,436
3 | B2 | constitutively active | 
4 | B3 | constitutively active | 
5 | B4 | constitutively active | 
6 | B5 | constitutively active | 
7 | B6 | constitutively active | 
8 | B7 | constitutively active | 
9 | B8 |  | basal cyclic AMP accumulation vs cells expressing wild-type receptors (PTH receptor): four to six times higher
10 | B9 |  | basal cyclic AMP accumulation vs cells expressing wild-type receptors (PTH receptor): four to six times higher
